Measured values as given in the Human Domainome abundance scans (Beltran et al. 2025).
± gives the uncertainty stated by the source.

B1: GAS2-like protein 1, residues 209 to 276; numbered along this chain, Q99501 (parent)
chain: DELVREILGRCTCPDQFPMIKVSEGKYRVGDSSLLIFVRVLRSHVMVRVGGGWDTLEHYLDKHDPCRC

Variants of: B1
Experiment: abundance fitness (aPCA) (normalised: wild type 0, dead -1); higher = more abundant; growth selection in yeast, the domain comes from the species named
Conditions: Homo sapiens

Compared with DELVREILGRCTCPDQFPMIKVSEGKYRVGDSSLLIFVRVLRSHVMVRVGGGWDLLEHYLDKHDPCRC [T55L], DELVREILGRCTCPDQFPMIKVSEGKYRVGDSSLLIFVRVLRSHVMVRVGGGWDCLEHYLDKHDPCRC [T55C] is lower in abundance fitness: -0.145 ± 0.046 for the first, -0.785 ± 0.21 for the second.

DELVREILGRCTCPDQFPMIKVSEGKYRVGDSSLLIFVRVLRSHVMVRVGGGWDALEHYLDKHDPCRC [T55A] and DELVREILGRCTCPDQFPMIKVSEGKYRVGDSSLLIFVRVLRSHVMVRVGGGWDKLEHYLDKHDPCRC [T55K] are within error of each other in abundance fitness: -0.545 ± 0.074 for the first, -0.489 ± 0.14 for the second.

DELVREILGRCTCPDQFPMIKVSEGKYRVGDSSLLIFVRVLRSHVMVRVGGGWDILEHYLDKHDPCRC [T55I] and DELVREILGRCTCPDQFPMIKVSEGKYRVGDSSLLIFVRVLRSHVMVRVGGGWDGLEHYLDKHDPCRC [T55G] are within error of each other in abundance fitness: -0.817 ± 0.1 for the first, -0.815 ± 0.11 for the second.

DELVREILGRCTCPDQFPMIKVSEGKYRVGDSSLLIFVRVLRSHVMVRVGGGWDDLEHYLDKHDPCRC [T55D] and DELVREILGRCTCPDQFPMIKVSEGKYRVGDSSLLIFVRVLRSHVMVRVGGGWDMLEHYLDKHDPCRC [T55M] are within error of each other in abundance fitness: -0.431 ± 0.081 for the first, -0.512 ± 0.086 for the second.

DELVREILGRCTCPDQFPMIKVSEGKYRVGDSSLLIFVRVLRSHVMVRVGGGWDFLEHYLDKHDPCRC [T55F] and DELVREILGRCTCPDQFPMIKVSEGKYRVGDSSLLIFVRVLRSHVMVRVGGGWDHLEHYLDKHDPCRC [T55H] are within error of each other in abundance fitness: -0.263 ± 0.088 for the first, -0.399 ± 0.15 for the second.

First: DELVREILGRCTCPDQFPMIKVSEGKYRVGDSSLLIFVRVLRSHVMVRVGGCWDTLEHYLDKHDPCRC [G52C]
Second: DELVREILGRCTCPDQFPMIKVSEGKYRVGDSSLLIFVRVLRSHVMVRVGGSWDTLEHYLDKHDPCRC [G52S]
The abundance fitness of the first is lower: -0.071 ± 0.066 for the first, 0.063 ± 0.034 for the second.

Compared with DELVREILGRCTCPDQFPMIKVSEGKYRVGDSSLLIFVRVLRSHVMVRVGGNWDTLEHYLDKHDPCRC [G52N], DELVREILGRCTCPDQFPMIKVSEGKYRVGDSSLLIFVRVLRSHVMVRVGGTWDTLEHYLDKHDPCRC [G52T] is higher in abundance fitness: -0.032 ± 0.068 for the first, 0.109 ± 0.038 for the second.

First: DELVREILGRCTCPDQFPMIKVSEGKYRVGDSSLLIFVRVLRSHVMVRVGGKWDTLEHYLDKHDPCRC [G52K]
Second: DELVREILGRCTCPDQFPMIKVSEGKYRVGDSSLLIFVRVLRSHVMVRVGGPWDTLEHYLDKHDPCRC [G52P]
The abundance fitness of the first is higher: 0.136 ± 0.062 for the first, -0.669 ± 0.093 for the second.

DELVREILGRCTCPDQFPMIKVSEGKYRVGDSSLLIFVRVLRSHVMVRVGGQWDTLEHYLDKHDPCRC [G52Q] and DELVREILGRCTCPDQFPMIKVSEGKYRVGDSSLLIFVRVLRSHVMVRVGGYWDTLEHYLDKHDPCRC [G52Y] are within error of each other in abundance fitness: 0.166 ± 0.039 for the first, 0.08 ± 0.057 for the second.

DELVREILGRCTCPDQFPMIKVSEGKYRVGDSSLLIFVRVLRSHVMVRVGGFWDTLEHYLDKHDPCRC [G52F] and DELVREILGRCTCPDQFPMIKVSEGKYRVGDSSLLIFVRVLRSHVMVRVGGDWDTLEHYLDKHDPCRC [G52D] are within error of each other in abundance fitness: -0.068 ± 0.05 for the first, 0.013 ± 0.044 for the second.

DELVREILGRCTCPDQFPMIKVSEGKYRVGDSSLLIFVRVLRSHVMVRVGGVWDTLEHYLDKHDPCRC [G52V] and DELVREILGRCTCPDQFPMIKVSEGKYRVGDSSLLIFVRVLRSHVMVRVGGHWDTLEHYLDKHDPCRC [G52H] are within error of each other in abundance fitness: 0.089 ± 0.033 for the first, 0.077 ± 0.049 for the second.

Going from DELVREILGRCTCPDQFPMIKVSEGKYRVGDSSLLIFVRVLRSHVMVRVGGLWDTLEHYLDKHDPCRC [G52L] to DELVREILGRCTCPDQFPMIKVSEGKYRVGDSSLLIFVRVLRSHVMVRVGGAWDTLEHYLDKHDPCRC [G52A], the abundance fitness rises from -0.004 ± 0.031 to 0.065 ± 0.034.

DELVREILGRCTCPDQFPMIKVSEGKYRVGDSSLLIFVRVLRSHVMVRVGGIWDTLEHYLDKHDPCRC [G52I] and DELVREILGRCTCPDQFPMIKVSEGKYRVGDSSLLIFVRVLRSHVMVRVGGRWDTLEHYLDKHDPCRC [G52R] are within error of each other in abundance fitness: -0.038 ± 0.061 for the first, 0.021 ± 0.031 for the second.

DELVREILGRCTCPDQFPMIKVSEGKYRVGDSSLLIFVRVLRSHVMVRVGGGWLTLEHYLDKHDPCRC [D54L] and DELVREILGRCTCPDQFPMIKVSEGKYRVGDSSLLIFVRVLRSHVMVRVGGGWGTLEHYLDKHDPCRC [D54G] are within error of each other in abundance fitness: -0.346 ± 0.3 for the first, 0.115 ± 0.42 for the second.

DELVREILGRCTCPDQFPMIKVSEGKYRVGDSSLLIFVRVLRSHVMVRVGQGWDTLEHYLDKHDPCRC [G51Q] and DELVREILGRCTCPDQFPMIKVSEGKYRVGDSSLLIFVRVLRSHVMVRVGKGWDTLEHYLDKHDPCRC [G51K] are within error of each other in abundance fitness: -0.015 ± 0.067 for the first, 0.056 ± 0.065 for the second.

Compared with DELVREILGRCTCPDQFPMIKVSEGKYRVGDSSLLIFVRVLRSHVMVRVGLGWDTLEHYLDKHDPCRC [G51L], DELVREILGRCTCPDQFPMIKVSEGKYRVGDSSLLIFVRVLRSHVMVRVGIGWDTLEHYLDKHDPCRC [G51I] is lower in abundance fitness: -0.219 ± 0.043 for the first, -0.544 ± 0.12 for the second.

DELVREILGRCTCPDQFPMIKVSEGKYRVGDSSLLIFVRVLRSHVMVRVGVGWDTLEHYLDKHDPCRC [G51V] and DELVREILGRCTCPDQFPMIKVSEGKYRVGDSSLLIFVRVLRSHVMVRVGYGWDTLEHYLDKHDPCRC [G51Y] are within error of each other in abundance fitness: -0.363 ± 0.052 for the first, -0.286 ± 0.098 for the second.

DELVREILGRCTCPDQFPMIKVSEGKYRVGDSSLLIFVRVLRSHVMVRVGPGWDTLEHYLDKHDPCRC [G51P] and DELVREILGRCTCPDQFPMIKVSEGKYRVGDSSLLIFVRVLRSHVMVRVGMGWDTLEHYLDKHDPCRC [G51M] are within error of each other in abundance fitness: -0.206 ± 0.072 for the first, -0.15 ± 0.057 for the second.

Compared with DELVREILGRCTCPDQFPMIKVSEGKYRVGDSSLLIFVRVLRSHVMVRVGTGWDTLEHYLDKHDPCRC [G51T], DELVREILGRCTCPDQFPMIKVSEGKYRVGDSSLLIFVRVLRSHVMVRVGWGWDTLEHYLDKHDPCRC [G51W] is lower in abundance fitness: 0.032 ± 0.051 for the first, -0.512 ± 0.074 for the second.

DELVREILGRCTCPDQFPMIKVSEGKYRVGDSSLLIFVRVLRSHVMVRVGRGWDTLEHYLDKHDPCRC [G51R] and DELVREILGRCTCPDQFPMIKVSEGKYRVGDSSLLIFVRVLRSHVMVRVGGGCDTLEHYLDKHDPCRC [W53C] are within error of each other in abundance fitness: -0.159 ± 0.047 for the first, -0.485 ± 0.38 for the second.
